We go through 1 molecule from patent US20040152630A1.

The target in this test is different isoforms of the 14-3-3. Nature of the test: not stated (R18 isolated by phage display; Wang et al. 1999 cited).

PHCVPRDLSWLDLEANMCLP [R18 polypeptide (14-3-3 amphipathic groove binding antagonist)] displayed a Kd of 80 nM. That is a double-digit nanomolar value.

The term Kd denotes the constant that tells how readily two partners part at equilibrium. Lower therefore signals higher affinity.
